For data set [1] the following is noted: cited from earlier work.
For data set [2] the following is noted: cited from earlier work; for storage time after reconstitution: reconstituted with 0.9% benzyl alcohol.
The nature of data set [3]: Level of inclusion of guest protein/peptide in host crystals (labeled-insulin/lactose crystals dissolved in PBS and analyzed by HPLC). In kind it is physicochemical. Particulars: rhodamine-labeled glucagon in α-lactose monohydrate crystals.
Experimental: To investigate the potential for incorporation of a biopharmaceutical into crystals of biocompatible excipients, studies were conducted using rhodamine-labeled glandular glucagon and lactose. As in the previous studies, the rhodamine label was used to facilitate the visualization of glucagon in the host crystals. Typical crystal growth conditions involved the addition of 5 volumes of a supersaturated solution of deionized α-lactose monohydrate to 1 volume of an approximately 1.5 mg/mL (approximately 300 to 400 μmole) of rhodamine-labeled glucagon in purified water. The mixed solution was allowed to stand at room temperature in a 24-well plate.
For data set [4] the following is noted: vs. 2% in placebo; cited from earlier work.

Where two headings read alike, the source gives them in different places.

Actimmune: the activity entry in data set [1] (interferon gamma-1b) is reported as “dimeric form in solution, activity or 30 million units/mg”.
On to Activase, for which the “time diluted solution can be held” value in data set [2] (1 mg/mL solution diluted 1:1 with 0.9% NaCl or D5W, room temperature) is 8 h. For the same molecule, the “effect of preservatives on the product” value in data set [2] (preserved water or addition of preservatives) is on record as “precipitation”. The activity in data set [1] (T-PA glycoprotein) was 580,000 IU/mg.
With Leukine, the “storage time after reconstitution” value in data set [2] (refrigerated temperatures) is on record as less than 20 days. Also, the “reconstituted solution stable for” value in data set [2] (reconstituted with sterile water, refrigerated temperatures) was less than 6 h. In data set [1] (GM-CSF), the specific activity result was “Additional Information: Specific activity is 5 × 10^7 colony forming units per mg protein. Sargramostim”.
Consider Protropin, for which the “storage time after reconstitution” value in data set [2] (refrigerated temperatures) was “stored at refrigerated temperature, the reconstituted product is good for 14 days at refrigerated”.
As for “rhodamine-labeled glucagon: glandular glucagon carrying a rhodamine label to visualize it in the host crystals”, the level of inclusion result in data set [3] is “approximately 0.1 % (w/w)”.

B1: Actimmune (protein, UniProt P01579 24-161, looked up)
Interferon gamma: QDPYVKEAENLKKYFNAGHSDVADNGTLFLGILKNWKEESDRKIMQSQIVSFYFKLFKNFKDDQSIQKSVETIKEDMNVKFFNSNKKKRDDFEKLTNYSVTDLNVQRKAIHELIQVMAELSPAAKTGKRKRSQMLFRG
modifications: interferon gamma-1b
Turning to B1, in data set [4], the injection site irritation result is listed as “Additional Information: 14% injection site irritation vs. 2% in placebo. Cost $140 for 50 μg”.

(Values after patent publication US7001892B1, “Pharmaceutical materials and methods for their preparation and use” (Purdue Research Foundation, priority 1999, dated 2006).)
